# Columns and labels:
# [1] = tested on: Wnt3A-mediated induction of luciferase in the 293.TCF cells; assay: Wnt3A canonical signaling assay, bioactivity of Notum constructs; format: cell-based, human
# Source text: To generate a stable population of cells that contain a reporter for the activation of canonical Wnt signaling, HEK 293T cells were transduced with a lentiviral vector, pGreenFirel-TCF (System Biosciences) which encodes a bifunctional GFP and luciferase reporter cassette under the control of a minimal CMV reporter linked to four tandem repeats of the transcriptional response elements for TCF. Transduced cells populations, termed 293.TCF cells, were subsequently used in a Wnt3A canonical signaling assay as follows: 2.5×10^4 293.TCF cells were plated per well of a 96-well tissue culture plate in 50 μL of serum-free DME medium. After 24 hours of serum starvation, 25 μL of various dilutions of conditioned medium (CM) from L/Wnt3A cells (ATCC CRL-2647; Willert, 2003) or undiluted CM from parental L-cells (ATCC CRL-2648) along with 25 μL of DMEM+0.2% FBS were added to each well. Eighteen hours after addition of CM, 100 μL of One-Glo solution (ProMega Corp.) was added to each well. The contents of each well were then mixed thoroughly to lyse the cells, 100 μL of lysate transferred to black 96-well plates, and the luminescence in each well read after 5 mins using a Wallac Victor3 Multilabel Counter (Perkin-Elmer Corp). […] More particularly, as the Wnt3A+ CM media is diluted from 25% down to approximately 3%, activation of the Wnt pathway is reduced with a corresponding decrease in luminescence.
# Once the luciferase reporter system was established, assays for determining the bioactivity of various Notum modulators were performed as follows. 2.5×10^4 293.TCF cells were plated per well of a 96-well tissue culture plate in 50 μL of serum-free medium. After 23 hours of serum starvation, 25 μL of DMEM+0.2% FBS containing various Notum modulators at various concentrations (e.g., hNotum-His, hNotum-hFc, hNotum-S232A-His, murine Notum-His, murine Notum-hFc, macaque Notum-hFc, control protein-His or control protein-hFc obtained as per Examples 7, 8 and 13 above), were added to the cells. After 1 hour, 25 μL of Wnt3A or control L-cell CM were added to each well. Eighteen hours after addition of CM, 100 μL of One-Glo solution (ProMega Corp.) was added to each well, the contents of each well mixed thoroughly to lyse the cells, 100 μL of lysate transferred to black 96-well plates, and the luminescence read after 5 minutes.
# [2] = Esterase activity of Notum proteins on chromogenic substrates; format: biochemical; conditions: 1 hour at 37° C.
# Method: Briefly, PNPA or PNPB were dissolved/diluted in isopropanol to final concentrations of 10 mM. These substrate solutions were diluted 1:10 into assay buffer (0.1% gum arabic, 2.3 mg/mL sodium dexoycholate, 1×PBS) and incubated with defined amounts of hNotum enzyme, and the enzymatic release of the chromophore p-nitrophenol monitored by absorbance measurements at 405 nm.
# [3] = 4-MUH fluorescent hydrolase assay, activity of Notum constructs; format: biochemical
# Method: In addition to the assays described in Examples 23 and 24, a fluorescent esterase substrate, 4-methylumbelliferyl heptanoate (Sigma), can be used to measure the activity of hydrolases using standard assay conditions (Richardson and Smith, 2007, PMID: 17620441; Jacks and Kircher, 1967, PMID: 5582971). Briefly, 4-MUH was dissolved in DMSO to a final concentration of 1.2 mM. This substrate was diluted 1:10 into assay buffer (0.1M Tris, pH 7.5, 50 mM NaCl, 0.05% Brij) and incubated with defined amounts of Notum enzyme or point-mutated Notum enzymes, and enzymatic release of the fluorescent molecule 4-methylumbelliferone monitored (355 nm excitation, 460 nm emission) using a Wallac Victor3 Multilabel Counter (Perkin Elmer).
Molecule,antagonism of Wnt3A-mediated induction of luciferase [1],esterase activity [2],hydrolysis of the 4-MUH substrate [3]
"murine Notum-His: His tagged murine Notum (protein, left off: small tags and cut ends) SEGRKTWRRRGQQPPQPPPPPPLPQRAEVEPGAGQPVESFPLDFTAVEGNMDSFMAQVKSLAQSLYPCSAQQLNEDLRLHLLLNTSVTCNDGSPAGYYLKESKGSRRWLLFLEGGWYCFNRENCDSRYSTMRRLMSSKDWPHTRTGTGILSSQPEENPHWWNANMVFIPYCSSDVWSGASPKSDKNEYAFMGSLIIQEVVRELLGKGLSGAKVLLLAGSSAGGTGVLLNVDRVAELLEELGYPSIQVRGLADSGWFLDNKQYRRSDCIDTINCAPTDAIRRGIRYWSGMVPERCQRQFKEGEEWNCFFGYKVYPTLRCPVFVVQWLFDEAQLTVDNVHLTGQPVQEGQWLYIQNLGRELRGTLKDVQASFAPACLSHEIIIRSYWTDVQVKGTSLPRALHCWDRSFHDSHKASKTPMKGCPFHLVDSCPWPHCNPSCPTIRDQFTGQEMNVAQFLMHMGFDVQTVAQQQGMEPSKLLGMLSNGN",functionally antagonize,,
"murine Notum: recombinant murine Notum protein, construct not stated (protein) SEGRKTWRRRGQQPPQPPPPPPLPQRAEVEPGAGQPVESFPLDFTAVEGNMDSFMAQVKSLAQSLYPCSAQQLNEDLRLHLLLNTSVTCNDGSPAGYYLKESKGSRRWLLFLEGGWYCFNRENCDSRYSTMRRLMSSKDWPHTRTGTGILSSQPEENPHWWNANMVFIPYCSSDVWSGASPKSDKNEYAFMGSLIIQEVVRELLGKGLSGAKVLLLAGSSAGGTGVLLNVDRVAELLEELGYPSIQVRGLADSGWFLDNKQYRRSDCIDTINCAPTDAIRRGIRYWSGMVPERCQRQFKEGEEWNCFFGYKVYPTLRCPVFVVQWLFDEAQLTVDNVHLTGQPVQEGQWLYIQNLGRELRGTLKDVQASFAPACLSHEIIIRSYWTDVQVKGTSLPRALHCWDRSFHDSHKASKTPMKGCPFHLVDSCPWPHCNPSCPTIRDQFTGQEMNVAQFLMHMGFDVQTVAQQQGMEPSKLLGMLSNGN",,display esterase activity,
"murine Notum-hFc: fusion construct of mouse Notum and human Fc region (protein, left off: a dimerising Fc or GST, fusion construct of mouse Notum and human Fc region) SEGRKTWRRRGQQPPQPPPPPPLPQRAEVEPGAGQPVESFPLDFTAVEGNMDSFMAQVKSLAQSLYPCSAQQLNEDLRLHLLLNTSVTCNDGSPAGYYLKESKGSRRWLLFLEGGWYCFNRENCDSRYSTMRRLMSSKDWPHTRTGTGILSSQPEENPHWWNANMVFIPYCSSDVWSGASPKSDKNEYAFMGSLIIQEVVRELLGKGLSGAKVLLLAGSSAGGTGVLLNVDRVAELLEELGYPSIQVRGLADSGWFLDNKQYRRSDCIDTINCAPTDAIRRGIRYWSGMVPERCQRQFKEGEEWNCFFGYKVYPTLRCPVFVVQWLFDEAQLTVDNVHLTGQPVQEGQWLYIQNLGRELRGTLKDVQASFAPACLSHEIIIRSYWTDVQVKGTSLPRALHCWDRSFHDSHKASKTPMKGCPFHLVDSCPWPHCNPSCPTIRDQFTGQEMNVAQFLMHMGFDVQTVAQQQGMEPSKLLGMLSNGN",functionally antagonize,,
"macaque Notum-hFc: fusion construct of macaque Notum and human Fc region (protein, left off: a dimerising Fc or GST, fusion construct of macaque Notum and human Fc region) SEGRKTWRRRGQQPPPPPRTEAAPAAGQPVESFPLDFTAVEGNMDSFMAQVKSLAQSLYPCSAQQLNEDLRLHLLLNTSVTCNDGSPAGYYLKESRGSRRWLLFLEGGWYCFNRENCDSRYNTMRRLMSSRDWPRTRTGTGILSSQPEENPYWWNANMVFIPYCSSDVWSGASSKSEKNEYAFMGALIIQEVVRELLGRGLSGAKVLLLAGSSAGGTGVLLNVDRVAEQLEELGYPAIQVRGLADSGWFLDNKQYRHTDCVDTITCAPTEAIRRGIRYWNGVVPERCRRQFQEGEEWNCFFGYKIYPTLRCPVFVVQWLFDEAQLTVDNVHLTGQPVQESQRLYIQNLGRELRHTLKDVPASFAPACLSHEIIIRSHWTDVQVKGTSLPRALHCWDRSLHDSHKNSKTPLKGCPVHLVDSCPWPHCNPSCPTVRDQFTGQEMNVAQFLMHMGFDVQTVAQQQGPEPSKLLGL",functionally antagonize,,
"D340A: human Notum with D340A point mutation of the catalytic acidic residue (protein, UniProt Q6P988 20-496, looked up, variant D340A) Palmitoleoyl-protein …: SEGRKTWRRRGQQPPPPPRTEAAPAAGQPVESFPLDFTAVEGNMDSFMAQVKSLAQSLYPCSAQQLNEDLRLHLLLNTSVTCNDGSPAGYYLKESRGSRRWLLFLEGGWYCFNRENCDSRYDTMRRLMSSRDWPRTRTGTGILSSQPEENPYWWNANMVFIPYCSSDVWSGASSKSEKNEYAFMGALIIQEVVRELLGRGLSGAKVLLLAGSSAGGTGVLLNVDRVAEQLEKLGYPAIQVRGLADSGWFLDNKQYRHTDCVDTITCAPTEAIRRGIRYWNGVVPERCRRQFQEGEEWNCFFGYKVYPTLRCPVFVVQWLFAEAQLTVDNVHLTGQPVQEGLRLYIQNLGRELRHTLKDVPASFAPACLSHEIIIRSHWTDVQVKGTSLPRALHCWDRSLHDSHKASKTPLKGCPVHLVDSCPWPHCNPSCPTVRDQFTGQEMNVAQFLMHMGFDMQTVAQPQGLEPSELLGMLSNGS",no ability to antagonize,,no ability to hydrolyze the 4-MUH substrate
D141N: human Notum point mutated at D141 to the macaque residue (protein) SEGRKTWRRRGQQPPPPPRTEAAPAAGQPVESFPLDFTAVEGNMDSFMAQVKSLAQSLYPCSAQQLNEDLRLHLLLNTSVTCNDGSPAGYYLKESRGSRRWLLFLEGGWYCFNRENCDSRYNTMRRLMSSRDWPRTRTGTGILSSQPEENPYWWNANMVFIPYCSSDVWSGASSKSEKNEYAFMGALIIQEVVRELLGRGLSGAKVLLLAGSSAGGTGVLLNVDRVAEQLEKLGYPAIQVRGLADSGWFLDNKQYRHTDCVDTITCAPTEAIRRGIRYWNGVVPERCRRQFQEGEEWNCFFGYKVYPTLRCPVFVVQWLFDEAQLTVDNVHLTGQPVQEGLRLYIQNLGRELRHTLKDVPASFAPACLSHEIIIRSHWTDVQVKGTSLPRALHCWDRSLHDSHKASKTPLKGCPVHLVDSCPWPHCNPSCPTVRDQFTGQEMNVAQFLMHMGFDMQTVAQPQGLEPSELLGMLSNGS,retained bioactivity,,retained bioactivity
D141S: human Notum point mutated at D141 to the murine residue (protein) SEGRKTWRRRGQQPPPPPRTEAAPAAGQPVESFPLDFTAVEGNMDSFMAQVKSLAQSLYPCSAQQLNEDLRLHLLLNTSVTCNDGSPAGYYLKESRGSRRWLLFLEGGWYCFNRENCDSRYSTMRRLMSSRDWPRTRTGTGILSSQPEENPYWWNANMVFIPYCSSDVWSGASSKSEKNEYAFMGALIIQEVVRELLGRGLSGAKVLLLAGSSAGGTGVLLNVDRVAEQLEKLGYPAIQVRGLADSGWFLDNKQYRHTDCVDTITCAPTEAIRRGIRYWNGVVPERCRRQFQEGEEWNCFFGYKVYPTLRCPVFVVQWLFDEAQLTVDNVHLTGQPVQEGLRLYIQNLGRELRHTLKDVPASFAPACLSHEIIIRSHWTDVQVKGTSLPRALHCWDRSLHDSHKASKTPLKGCPVHLVDSCPWPHCNPSCPTVRDQFTGQEMNVAQFLMHMGFDMQTVAQPQGLEPSELLGMLSNGS,retained bioactivity,,retained bioactivity
